Blank lines part the entries; values can stand above or below the substance they belong to.
Columns and labels:
Test in all cases: AUC; sedimentation velocity, 42,000 rpm, 20°C, 0.3–0.5 mg/mL in buffer HST300, continuous c(s) distribution (SEDFIT)
[1] = target: Mis18α:Mis18β complex (insect-cell-expressed) (human) (UniProt Q9NYP9); conditions: scale: M18BP1^1–140-MBP per Mis18α:Mis18β hexamer
[2] = target: 6His-Mis18β (insect-cell-expressed) (human) (UniProt O43482)
[3] = target: MBP-Mis18β (insect-cell-expressed) (human) (UniProt O43482)
Sequence of MBP-Mis18β (insect-cell-expressed) (human) (O43482 whole entry): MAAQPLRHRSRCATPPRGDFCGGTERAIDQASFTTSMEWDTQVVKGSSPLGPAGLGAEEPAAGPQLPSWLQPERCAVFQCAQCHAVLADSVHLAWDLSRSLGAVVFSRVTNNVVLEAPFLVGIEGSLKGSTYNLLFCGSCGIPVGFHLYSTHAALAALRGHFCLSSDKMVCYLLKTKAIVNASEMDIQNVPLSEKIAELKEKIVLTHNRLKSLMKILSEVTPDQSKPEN

[4] = target: Mis18β (insect-cell-expressed, untagged) (human) (UniProt O43482)
Sequence of Mis18β (insect-cell-expressed, untagged) (human) (O43482 whole entry): as above

Sequence of M18BP1^1–140-MBP (Q6P0N0 1-140): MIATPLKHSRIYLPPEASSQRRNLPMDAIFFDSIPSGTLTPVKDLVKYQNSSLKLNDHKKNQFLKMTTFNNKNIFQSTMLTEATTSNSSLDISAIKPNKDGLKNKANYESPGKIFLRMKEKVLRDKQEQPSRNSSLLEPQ
Sequence of 6His-Mis18α (insect-cell-expressed) (Q9NYP9 whole entry): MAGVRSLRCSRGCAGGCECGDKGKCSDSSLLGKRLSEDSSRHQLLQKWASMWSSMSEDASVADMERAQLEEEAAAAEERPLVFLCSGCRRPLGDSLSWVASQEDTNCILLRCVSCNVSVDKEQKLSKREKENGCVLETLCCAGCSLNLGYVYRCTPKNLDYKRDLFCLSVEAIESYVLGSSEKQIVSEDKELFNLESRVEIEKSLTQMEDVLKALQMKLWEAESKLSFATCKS
Sequence of Mis18α (insect-cell-expressed, 6His cleaved) (Q9NYP9 whole entry): as above
Sequence of Mis18α:Mis18β complex (insect-cell-expressed) (human) (Q9NYP9 whole entry, chain 1 of 2): as the sequence (Q9NYP9 whole entry) above
Sequence of Mis18α:Mis18β complex (insect-cell-expressed) (human) (O43482 whole entry, chain 2 of 2, further chain): as the sequence (O43482 whole entry) above
Sequence of MBP-Mis18α (insect-cell-expressed) (Q9NYP9 whole entry): as the sequence (Q9NYP9 whole entry) above
Sequence of 6His-Mis18β (insect-cell-expressed) (human) (O43482 whole entry): as the sequence (O43482 whole entry) above

- stoichiometry N [1]: 2
Substance: M18BP1^1–140-MBP (from UniProt Q6P0N0 1-140) (domain or fragment)

- stoichiometry N (MBP-Mis18α per complex) [2]: 4
Substance: MBP-Mis18α (insect-cell-expressed) (from UniProt Q9NYP9 1-233) (natural protein)

- stoichiometry N (MBP-Mis18β per complex) [3]: 2
Substance: 6His-Mis18α (insect-cell-expressed) (from UniProt Q9NYP9 1-233) (natural protein)

- stoichiometry N (Mis18α per Mis18β (4:2 hexamer)) [4]: 2
Substance: Mis18α (insect-cell-expressed, 6His cleaved) (from UniProt Q9NYP9 1-233) (natural protein)

Source: PMC5245964
